Assay results taken from patent US20250206837A1 (ELIXIRON IMMUNOTHERAPEUTICS HONG KONG, published 2025).
Positions count from the first letter of the chain named. “And” between values parts separate entries of the source, which are not always exact repeats. Equal entries are not always repeated.

Columns and labels:
[1] = target: T1, Recombinant His-tagged human CD36.ECD protein (Sino Biological) (human, UniProt P16671 30-439); assay: ELISA, coated human CD36.ECD (FIG. 2B)
T1 construct: Bought protein; also called hCD36.ECD; hCD36; not shown: His tag
Procedure: (§1) ELISA materials and methods: Recombinant His-tagged human CD36.ECD protein or His-tagged mouse CD36.ECD protein (both from Sino Biological) was immobilized on 96 well microtiter plate at a concentration of 1 μg/mL in Coating Solution (SeraCare) overnight at 4° C. The wells were washed with wash solution (0.05% Tween20 in PBS) and blocked with 1% BSA in PBS. Serial dilutions of anti-CD36 antibodies were added to wells. After incubation at 37° C. for 1 h, the wells were washed with wash solution. Peroxidase-conjugated Goat anti-human kappa Light chain antibody (Sigma) was applied to each well at 37° C. for 1 h incubation. After washing, the wells were developed with TMB substrate for 5-10 min at room temperature and then stopped with 1 N HCl. Thereafter absorbance was measured at 450 nm and 650 nm. EC50 values were calculated through GraphPad Prism7.
(§2) The competitor anti-CD36 antibody ONA, which is derived from clone “ONA-0-v1” as disclosed in WO2021176424A1 in hIgG4-S228P-FALA format.

[2] = target: T1, Recombinant His-tagged human CD36.ECD …; assay: ELISA, coated human CD36.ECD (FIG. 2C)
Procedure: as §1, §2

[3] = target: T2, rhesus CD36-His overexpressed on stable F293 cells (rhesus, UniProt P16671 2-472 (human entry)); assay: flow cytometry, F293 cells overexpressing rhesus CD36
T2 construct: Gene segment from Sino Biological; also called F293/rhesusCD36; not shown: His tag
Excerpt: (§3) After washing with FACS buffer (2% FBS in PBS), the cells were stained with anti-human IgG-Alexa Fluor 647 and analyzed by Attune NxT Flow Cytometer (Thermo Scientific).

[4] = target: T3, mouse CD36-His overexpressed on stable F293 cells (mouse, UniProt Q08857 1-472); assay: flow cytometry, F293 cells overexpressing mouse CD36
T3 construct: Gene segment from Sino Biological; also called F293/mCD36; mCD36; not shown: His tag
Excerpt: as §3

[5] = target: T1, Recombinant His-tagged human CD36.ECD …; assay: ELISA, coated human CD36.ECD (FIG. 2D)
Procedure: as §1, §2

[6] = target: T4, full-length human CD36-Flag overexpressed on stable F293 cells (human, UniProt P16671 2-472); assay: flow cytometry, F293 cells overexpressing human CD36
T4 construct: Gene segment from Sino Biological; also called F293/hCD36; hCD36; not shown: Flag tag
Excerpt: as §3

[7] = target: T3, mouse CD36-His overexpressed on stable …; assay: cell-based or functional assay
[8] = target: T4, full-length human CD36-Flag …; assay: cell-based or functional assay
[9] = target: T1, Recombinant His-tagged human CD36.ECD …; assay: ELISA, coated human CD36.ECD (FIG. 2A)
Procedure: as §1, §2

[10] = target: T1, Recombinant His-tagged human CD36.ECD …; assay: ELISA, coated human CD36.ECD (FIG. 2F)
Procedure: as §1, §2

[11] = target: T1, Recombinant His-tagged human CD36.ECD …; assay: ELISA, coated human CD36.ECD (FIG. 2E)
Procedure: as §1, §2

T4 sequence (P16671 2-472): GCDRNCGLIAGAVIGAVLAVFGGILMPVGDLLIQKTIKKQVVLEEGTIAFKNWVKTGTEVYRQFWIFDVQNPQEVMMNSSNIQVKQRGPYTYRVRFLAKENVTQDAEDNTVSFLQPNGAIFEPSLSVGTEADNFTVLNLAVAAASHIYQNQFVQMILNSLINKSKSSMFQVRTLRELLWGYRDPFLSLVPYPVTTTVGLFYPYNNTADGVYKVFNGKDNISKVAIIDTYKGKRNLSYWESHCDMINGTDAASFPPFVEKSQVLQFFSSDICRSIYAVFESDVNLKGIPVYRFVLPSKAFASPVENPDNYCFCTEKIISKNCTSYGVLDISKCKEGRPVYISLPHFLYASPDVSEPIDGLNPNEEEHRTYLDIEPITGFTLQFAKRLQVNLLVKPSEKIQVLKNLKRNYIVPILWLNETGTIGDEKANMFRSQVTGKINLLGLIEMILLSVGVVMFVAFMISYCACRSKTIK
T1 sequence (P16671 30-439 limits assumed): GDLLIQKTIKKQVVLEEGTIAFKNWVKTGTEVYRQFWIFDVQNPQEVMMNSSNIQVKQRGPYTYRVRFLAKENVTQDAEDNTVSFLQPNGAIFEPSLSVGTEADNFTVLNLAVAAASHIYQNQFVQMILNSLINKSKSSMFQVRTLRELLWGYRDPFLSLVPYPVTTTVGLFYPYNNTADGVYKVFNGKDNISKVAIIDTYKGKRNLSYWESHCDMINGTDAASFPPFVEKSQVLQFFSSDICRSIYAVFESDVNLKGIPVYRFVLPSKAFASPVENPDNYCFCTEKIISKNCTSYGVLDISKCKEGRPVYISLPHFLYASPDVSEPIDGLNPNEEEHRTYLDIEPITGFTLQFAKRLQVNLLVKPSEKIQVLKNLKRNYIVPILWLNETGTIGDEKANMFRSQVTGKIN
T3 sequence (Q08857 whole entry): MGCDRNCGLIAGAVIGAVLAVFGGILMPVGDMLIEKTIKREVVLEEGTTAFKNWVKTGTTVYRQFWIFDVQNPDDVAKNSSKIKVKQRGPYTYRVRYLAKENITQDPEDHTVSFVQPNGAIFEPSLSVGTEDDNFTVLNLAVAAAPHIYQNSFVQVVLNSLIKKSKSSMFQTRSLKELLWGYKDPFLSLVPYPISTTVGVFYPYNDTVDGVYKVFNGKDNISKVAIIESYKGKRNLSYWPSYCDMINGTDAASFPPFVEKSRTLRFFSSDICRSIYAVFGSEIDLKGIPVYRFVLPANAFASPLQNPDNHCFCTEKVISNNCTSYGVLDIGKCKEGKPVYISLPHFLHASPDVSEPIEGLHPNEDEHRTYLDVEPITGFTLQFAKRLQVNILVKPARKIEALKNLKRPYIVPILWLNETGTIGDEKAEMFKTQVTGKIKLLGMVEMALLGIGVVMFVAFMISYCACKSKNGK
T2 sequence (P16671 other isoform, or with tags, fused parts or gaps): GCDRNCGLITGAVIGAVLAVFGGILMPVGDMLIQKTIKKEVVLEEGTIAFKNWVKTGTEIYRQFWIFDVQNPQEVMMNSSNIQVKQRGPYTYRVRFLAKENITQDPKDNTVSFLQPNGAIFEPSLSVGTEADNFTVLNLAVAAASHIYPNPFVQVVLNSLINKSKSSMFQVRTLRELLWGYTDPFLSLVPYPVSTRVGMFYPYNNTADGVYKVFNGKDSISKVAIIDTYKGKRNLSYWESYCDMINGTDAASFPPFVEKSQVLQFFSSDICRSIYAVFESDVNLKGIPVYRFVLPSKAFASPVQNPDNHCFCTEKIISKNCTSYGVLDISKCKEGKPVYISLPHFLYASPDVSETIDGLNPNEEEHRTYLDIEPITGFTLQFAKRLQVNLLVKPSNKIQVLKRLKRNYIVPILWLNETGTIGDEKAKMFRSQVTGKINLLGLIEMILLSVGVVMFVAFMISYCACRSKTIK

B1: 117_28A (antibody, V domains shown)
VH: EVQLVESGGGLVQPGGSLRLSCAASGFAISSFGIHWVRQAPGKGLEWVAWIAPYGGYTYYADSVKGRFTISADTSKNTAYLQMNSLRAEDTAVYYCARSFFGYFDYWGQGTLVTVSS
VL: DIQMTQSPSSLSASVGDRVTITCRASQDVSNWVAWYQQKPGKAPKLLISYATSLYSGVPSRFSGSGSGTDFTLTISSLQPEDFATYYCQQHSNAPLTFGQGTKVEIKR
notes: full-length IgG, human kappa
B1 was tested, and the EC50 [1] was 0.129 nM.

B2: 117_28D (antibody, V domains shown)
VH: B1 VH with A28D
VL: B1 VL
notes: full-length IgG, human kappa
In the case of B2, the EC50 [1] is reported as 0.0735 nM.

B3: 117_30A (antibody, V domains shown)
VH: B1 VH with A28T, S30A
VL: B1 VL
notes: full-length IgG, human kappa
B3 was tested, and the EC50 [1] was 0.0964 nM.

B4: 117_30AA (antibody, V domains shown)
VH: B1 VH with A28T, S30A, S31A
VL: B1 VL
notes: full-length IgG, human kappa
B4 gave an EC50 [2] of 0.145 nM.

B5: 117_30AT (antibody, V domains shown)
VH: B1 VH with A28T, S30A, S31T
VL: B1 VL
notes: full-length IgG, human kappa
Binder B5 has an EC50 [2] of 0.247 nM.

B6: 117_30D (antibody, V domains shown)
VH: B1 VH with A28T, S30D
VL: B1 VL
notes: full-length IgG, human kappa
With B6 the EC50 [1] was 0.141 nM.

B7: 117_30DA (antibody, V domains shown)
VH: B1 VH with A28T, S30D, S31A
VL: B1 VL
notes: full-length IgG, human kappa
B7 showed an EC50 [3] of 1.04 µg/mL, an EC50 [2] of 0.137 nM and an EC50 [4] of 0.488 µg/mL. For the same binder, the EC50 [5] was 0.0803 nM, the EC50 [6] was 0.157 µg/mL and the “oxLDL uptake IC50 (nM), F293/mCD36” value [7] was 1.07 nM. The “oxLDL uptake IC50 (nM), F293/hCD36” value [8] was 0.691 nM.

B8: 117_30DT (antibody, V domains shown)
VH: B1 VH with A28T, S30D, S31T
VL: B1 VL
notes: full-length IgG, human kappa
B8 gave an EC50 [2] of 0.103 nM.

B9: 117_30FA (antibody, V domains shown)
VH: B1 VH with A28T, S30F, S31A
VL: B1 VL
notes: full-length IgG, human kappa
Work on B9 yielded an EC50 [2] of 0.202 nM.

B10: 117_30FT (antibody, V domains shown)
VH: B1 VH with A28T, S30F, S31T
VL: B1 VL
notes: full-length IgG, human kappa
B10 was tested, and the EC50 [2] was 0.254 nM.

B11: 117_31A (antibody, V domains shown)
VH: B1 VH with A28T, S31A
VL: B1 VL
notes: full-length IgG, human kappa
With B11 the EC50 [1] was 0.0991 nM.

B12: 117_31D (antibody, V domains shown)
VH: B1 VH with A28T, S31D
VL: B1 VL
notes: full-length IgG, human kappa
In the case of B12, the EC50 [1] is reported as 0.0375 nM.

B13: 117_32D (antibody, V domains shown)
VH: B1 VH with A28T, F32D
VL: B1 VL
notes: full-length IgG, human kappa
Binder B13 has an EC50 [1] of 0.0276 nM.

B14: 117_57A (antibody, V domains shown)
VH: B1 VH with A28T, Y57A
VL: B1 VL
notes: full-length IgG, human kappa
For B14, the EC50 [9] was 1.52 nM.

B15: 117_57D (antibody, V domains shown)
VH: B1 VH with A28T, Y57D
VL: B1 VL
notes: full-length IgG, human kappa
With B15 the EC50 [9] was 0.0529 nM, the EC50 [3] was 0.397 µg/mL and the EC50 [4] was 0.309 µg/mL. For the same binder, the EC50 [6] was 0.111 µg/mL, the “oxLDL uptake IC50 (nM), F293/mCD36” value [7] was 0.783 nM and the “oxLDL uptake IC50 (nM), F293/hCD36” value [8] was 0.349 nM.

B16: 117_57E (antibody, V domains shown)
VH: B1 VH with A28T, Y57E
VL: B1 VL
notes: full-length IgG, human kappa
With B16 the EC50 [9] was 0.0492 nM, the EC50 [10] was 0.206 nM and the EC50 [3] was 0.419 µg/mL and 0.362 µg/mL. The EC50 [4] was 0.331 µg/mL and 0.279 µg/mL, the EC50 [6] was 0.11 µg/mL and 0.091 µg/mL and the “oxLDL uptake IC50 (nM), F293/mCD36” value [7] was 0.796 nM. The “oxLDL uptake IC50 (nM), F293/hCD36” value [8] was 0.419 nM.

B17: 117_57EE (antibody, V domains shown)
VH: B1 VH with A28T, Y57E, T58E
VL: B1 VL
notes: full-length IgG, human kappa
B17 gave an EC50 [3] of 0.407 µg/mL, an EC50 [4] of 0.319 µg/mL and an EC50 [6] of 0.093 µg/mL. For the same binder, the “oxLDL uptake IC50 (nM), F293/hCD36” value [8] was 0.348 nM.

B18: 117_57R (antibody, V domains shown)
VH: B1 VH with A28T, Y57R
VL: B1 VL
notes: full-length IgG, human kappa
B18 showed an EC50 [9] of 0.0695 nM.

B19: 117_58E (antibody, V domains shown)
VH: B1 VH with A28T, T58E
VL: B1 VL
notes: full-length IgG, human kappa
Binder B19 has an EC50 [9] of 0.422 nM.

B20: 117_101A (antibody, V domains shown)
VH: B1 VH with A28T, F101A
VL: B1 VL
notes: full-length IgG, human kappa
B20 was tested, and the EC50 [5] was 0.0751 nM.

B21: 117_101H (antibody, V domains shown)
VH: B1 VH with A28T, F101H
VL: B1 VL
notes: full-length IgG, human kappa
With B21 the EC50 [11] was 1.6 nM.

B22: 117_101K (antibody, V domains shown)
VH: B1 VH with A28T, F101K
VL: B1 VL
notes: full-length IgG, human kappa
For B22, the EC50 [5] was 1.46 nM.

B23: 117_101S (antibody, V domains shown)
VH: B1 VH with A28T, F101S
VL: B1 VL
notes: full-length IgG, human kappa
In the case of B23, the EC50 [11] is reported as 0.929 nM.

B24: 117_101Y (antibody, V domains shown)
VH: B1 VH with A28T, F101Y
VL: B1 VL
notes: full-length IgG, human kappa
B24 was tested, and the EC50 [11] was 0.355 nM.

B25: 117_AA57D (antibody, V domains shown)
VH: B1 VH with A28T, S30A, S31A, Y57D
VL: B1 VL
notes: full-length IgG, human kappa
In the case of B25, the EC50 [10] is reported as 0.192 nM.

B26: 117_AA57E (antibody, V domains shown)
VH: B1 VH with A28T, S30A, S31A, Y57E
VL: B1 VL
notes: full-length IgG, human kappa
In the case of B26, the EC50 [10] is reported as 0.251 nM.

B27: 117_DA57D (antibody, V domains shown)
VH: B1 VH with A28T, S30D, S31A, Y57D
VL: B1 VL
notes: full-length IgG, human kappa
In the case of B27, the EC50 [3] is reported as 0.416 µg/mL, the EC50 [4] is reported as 0.271 µg/mL and the EC50 [5] is reported as 0.049 nM. The EC50 [6] was 0.089 µg/mL and the “oxLDL uptake IC50 (nM), F293/hCD36” value [8] was 0.332 nM.

B28: 117_DA57E (antibody, V domains shown)
VH: B1 VH with A28T, S30D, S31A, Y57E
VL: B1 VL
notes: full-length IgG, human kappa
B28 was tested, and the EC50 [10] was 0.19 nM, the EC50 [3] was 0.563 µg/mL and 0.671 µg/mL and the EC50 [4] was 0.425 µg/mL and 0.375 µg/mL. The EC50 [5] was 0.0539 nM, the EC50 [6] was 0.109 µg/mL and 0.0968 µg/mL and the “oxLDL uptake IC50 (nM), F293/hCD36” value [8] was 0.306 nM.
